Measured values from the supplement of paper PMC9170038.

System: K4 kissing-loop RNA reporter
Assay: apparent KD of K4 kissing-loop reporter; higher = weaker reporter binding
Conditions: Eterna round: R107
Experimental: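 RNA-MaP round R107: designed RNA switches with theophylline, tryptophan, arginine or FMN aptamers are transcribed on-chip within common flanks. They are titrated with a labelled K4 kissing-loop RNA reporter in RNA-MaP buffer (100 mM Tris pH 7.5, 80 mM KCl, 4 mM MgCl2), without ligand or with the indicated ligand. Median apparent KD per design.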

[1] = input ligand: theophylline 20 uM
[2] = input ligand: tryptophan 2.4 mM
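Also: bound reporter read as fluorescence of individual clusters on recovered sequencing chips by microscopy, with normalized cluster intensities fitted with a binding model.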

In the case of “AGGAGCUGUCGACAAAAGUCGACAUAAACCAAGGAUAUGACGAAAGUCAGAAGGUGGUCAUAAGACCAGUGAUGUUGGUAGCUCC [FmnA 10 #SwitchBubble #K4Late]”, the “apparent KD of K4 kissing-loop reporter” value (input ligand: FMN 200 uM) is reported as 0.952 µM, the “apparent KD of K4 kissing-loop reporter” value (input ligand: arginine 13.2 mM) is reported as 0.259 µM and the “apparent KD of K4 kissing-loop reporter” value (input ligand: none) is reported as 0.466 µM. The “apparent KD of K4 kissing-loop reporter” value [1] was 0.488 µM and the “apparent KD of K4 kissing-loop reporter” value [2] was 0.338 µM.

With “AGGAGUGAUGUUCCUACAUAGACGGUCCAACGAGGACCGGUACGGCCGCCACUCGCGACCCAGUGAUGUUGGGAUUCACCGUACA [Exclusion Tryptophan A Gf 14]” the “apparent KD of K4 kissing-loop reporter” value (input ligand: FMN 200 uM) was 0.723 µM, the “apparent KD of K4 kissing-loop reporter” value (input ligand: arginine 13.2 mM) was 0.753 µM and the “apparent KD of K4 kissing-loop reporter” value (input ligand: none) was 0.818 µM. For the same sequence, the “apparent KD of K4 kissing-loop reporter” value [1] was 0.836 µM and the “apparent KD of K4 kissing-loop reporter” value [2] was 0.812 µM.

With “AGGAGUGAUGUUCCUACAUAGACGGUCCGACGAGGACCGGUACGGCCGCCACUCGCGUCCCAGUGAUGUUGGGAUUCAACGUACA [Exclusion Tryptophan A Gf 15]” the “apparent KD of K4 kissing-loop reporter” value (input ligand: FMN 200 uM) was 0.12 µM, the “apparent KD of K4 kissing-loop reporter” value (input ligand: arginine 13.2 mM) was 0.15 µM and the “apparent KD of K4 kissing-loop reporter” value (input ligand: none) was 0.139 µM. For the same sequence, the “apparent KD of K4 kissing-loop reporter” value [1] was 0.149 µM and the “apparent KD of K4 kissing-loop reporter” value [2] was 0.122 µM.

In the case of “AGGGAUGUUAAAGGAUAUAGAAAGUGAUGUUAGAAAGUGAGUGAUGUUGAUGUUAGUGAUGUUAUGUUAGAAGGUUAACAAAACG [a]”, the “apparent KD of K4 kissing-loop reporter” value (input ligand: FMN 200 uM) is reported as 0.256 µM, the “apparent KD of K4 kissing-loop reporter” value (input ligand: arginine 13.2 mM) is reported as 0.149 µM and the “apparent KD of K4 kissing-loop reporter” value (input ligand: none) is reported as 0.211 µM. For the same sequence, the “apparent KD of K4 kissing-loop reporter” value [1] was 0.192 µM and the “apparent KD of K4 kissing-loop reporter” value [2] was 0.161 µM.

For “AGGGCUGAGAGCGAUACCAGCGGAUACUAUAUGGUCCAAUAGAGUGAUGUUUUAUAAAGCCGCCCUUGGCAGCGCAAUCUAUUAG [XTheo-B4]”, the “apparent KD of K4 kissing-loop reporter” value (input ligand: FMN 200 uM) was 1.33 µM, the “apparent KD of K4 kissing-loop reporter” value (input ligand: arginine 13.2 mM) was 0.423 µM and the “apparent KD of K4 kissing-loop reporter” value (input ligand: none) was 0.501 µM. The “apparent KD of K4 kissing-loop reporter” value [1] was 0.982 µM and the “apparent KD of K4 kissing-loop reporter” value [2] was 0.453 µM.

In the case of “AGGUUUUACGGAGGAUAUGCACUGAGGAGGAGAAUAUAGUGAUGUUAUAUAAGAGGAAGGAGAAGAGUAGAAGGCCGUGAGGUUU [SSFMNB.M]”, the “apparent KD of K4 kissing-loop reporter” value (input ligand: FMN 200 uM) is reported as 0.136 µM, the “apparent KD of K4 kissing-loop reporter” value (input ligand: arginine 13.2 mM) is reported as 0.13 µM and the “apparent KD of K4 kissing-loop reporter” value (input ligand: none) is reported as 0.149 µM. For the same sequence, the “apparent KD of K4 kissing-loop reporter” value [1] was 0.204 µM and the “apparent KD of K4 kissing-loop reporter” value [2] was 0.0986 µM.

“AGGUUUUGAUUAGGAUAUGCACUGAGGAGGAGAAUAUAGUGAUGUUAUAUAAGAGGAAGGAGUAGAGUAGAAGGGAUUGAGGUUU [SSFMNB.R]” was tested, and the “apparent KD of K4 kissing-loop reporter” value (input ligand: FMN 200 uM) was 0.249 µM, the “apparent KD of K4 kissing-loop reporter” value (input ligand: arginine 13.2 mM) was 0.164 µM and the “apparent KD of K4 kissing-loop reporter” value (input ligand: none) was 0.199 µM. The “apparent KD of K4 kissing-loop reporter” value [1] was 0.172 µM and the “apparent KD of K4 kissing-loop reporter” value [2] was 0.188 µM.

In the case of “AGUAAUGAGUGAUGUUCAAAUAGUAAGGAUACCAGUAAUUCAAAAUGCCCUUGGCAGCUUAACGCUACCAAUAGAUAAAUAAUGG [Theophilline A V2 (+2A)]”, the “apparent KD of K4 kissing-loop reporter” value (input ligand: FMN 200 uM) is reported as 0.134 µM, the “apparent KD of K4 kissing-loop reporter” value (input ligand: arginine 13.2 mM) is reported as 0.166 µM and the “apparent KD of K4 kissing-loop reporter” value (input ligand: none) is reported as 0.144 µM. The “apparent KD of K4 kissing-loop reporter” value [1] was 0.172 µM and the “apparent KD of K4 kissing-loop reporter” value [2] was 0.0968 µM.

For “AGUACAAUGGCGGCCGCCACUCAACAGCAGAUCAAAGAUCUGCUUCACUCAGUGAUGUUGAGUGAGAGGACCGGGCCUUUGUACA [Omei KL Tryp B SS B v4]”, the “apparent KD of K4 kissing-loop reporter” value (input ligand: FMN 200 uM) was 0.793 µM, the “apparent KD of K4 kissing-loop reporter” value (input ligand: arginine 13.2 mM) was 0.614 µM and the “apparent KD of K4 kissing-loop reporter” value (input ligand: none) was 0.783 µM. The “apparent KD of K4 kissing-loop reporter” value [1] was 0.853 µM and the “apparent KD of K4 kissing-loop reporter” value [2] was 0.216 µM.

In the case of “AGUAGAGCAUCAGAUACCAGACAGAACUGAUGGUAAGGAGUGAUGUUCCUUAAUCAGCUUGUCCCUUGGCAGCUGAUAGUAGUCA [#14 K4 Theophylline B Same State]”, the “apparent KD of K4 kissing-loop reporter” value (input ligand: FMN 200 uM) is reported as 0.388 µM, the “apparent KD of K4 kissing-loop reporter” value (input ligand: arginine 13.2 mM) is reported as 0.417 µM and the “apparent KD of K4 kissing-loop reporter” value (input ligand: none) is reported as 0.431 µM. For the same sequence, the “apparent KD of K4 kissing-loop reporter” value [1] was 0.348 µM and the “apparent KD of K4 kissing-loop reporter” value [2] was 0.383 µM.

For “AGUCCACUCUAAAGAGUGGACCUAAGGGAUACCAGUGAUGUUGGUCACCCUUGGCAGCCCAGGGCCCGGGAUAAACCCGGGCCCA [#09 K4 Theophylline A Exclusion]”, the “apparent KD of K4 kissing-loop reporter” value (input ligand: FMN 200 uM) was 0.12 µM, the “apparent KD of K4 kissing-loop reporter” value (input ligand: arginine 13.2 mM) was 0.1 µM and the “apparent KD of K4 kissing-loop reporter” value (input ligand: none) was 0.113 µM. For the same sequence, the “apparent KD of K4 kissing-loop reporter” value [1] was 0.099 µM and the “apparent KD of K4 kissing-loop reporter” value [2] was 0.113 µM.

With “AGUGAACGAGCGGCCGCCACUAACUGAGUGAUGUUCGUGAGUAGUGCUGUUCUCAUGAUUGUUUUUAGGACCGGGUUCGAUGUUG [ttbjmullin]” the “apparent KD of K4 kissing-loop reporter” value (input ligand: FMN 200 uM) was 0.483 µM, the “apparent KD of K4 kissing-loop reporter” value (input ligand: arginine 13.2 mM) was 0.329 µM and the “apparent KD of K4 kissing-loop reporter” value (input ligand: none) was 0.391 µM. For the same sequence, the “apparent KD of K4 kissing-loop reporter” value [1] was 0.431 µM and the “apparent KD of K4 kissing-loop reporter” value [2] was 0.36 µM.

“AGUGAUGUAGUGUGUUGUUUGUGAAGUGAUCGAGGACCGGUACGGCCGCCACUCGAGUGAUGAGUGAGUGAUGUUUGUUUAGUGG [#18 K4 Tryptophan A Same State]” was tested, and the “apparent KD of K4 kissing-loop reporter” value (input ligand: FMN 200 uM) was 0.379 µM, the “apparent KD of K4 kissing-loop reporter” value (input ligand: arginine 13.2 mM) was 0.283 µM and the “apparent KD of K4 kissing-loop reporter” value (input ligand: none) was 0.376 µM. The “apparent KD of K4 kissing-loop reporter” value [1] was 0.412 µM and the “apparent KD of K4 kissing-loop reporter” value [2] was 0.303 µM.

With “AGUGAUGUAUGGCGGUUUGUCACUUAUUAUCAGGAUAUAUAAACAAAUAGAAGGGAUGGCGGAGUGAUGUUCCGCCGGCCGCCAU [FMN A Exl V5]” the “apparent KD of K4 kissing-loop reporter” value (input ligand: FMN 200 uM) was 0.172 µM, the “apparent KD of K4 kissing-loop reporter” value (input ligand: arginine 13.2 mM) was 0.14 µM and the “apparent KD of K4 kissing-loop reporter” value (input ligand: none) was 0.15 µM. For the same sequence, the “apparent KD of K4 kissing-loop reporter” value [1] was 0.157 µM and the “apparent KD of K4 kissing-loop reporter” value [2] was 0.166 µM.

With “AGUGCACUGGCAGGAUAUGUACAGUGAUGUUGUGUAUGUCAGCAAGUCAAAGACUUGCUCUUCUGUGCAGAAGGGCCUGUGUACA [#05 K4 FMN B Exclusion]” the “apparent KD of K4 kissing-loop reporter” value (input ligand: FMN 200 uM) was 0.442 µM, the “apparent KD of K4 kissing-loop reporter” value (input ligand: arginine 13.2 mM) was 0.526 µM and the “apparent KD of K4 kissing-loop reporter” value (input ligand: none) was 0.668 µM. The “apparent KD of K4 kissing-loop reporter” value [1] was 0.532 µM and the “apparent KD of K4 kissing-loop reporter” value [2] was 0.534 µM.

With “AGUGCACUGUCAGGAUAUAUACAGUGAUGUUGUGUAUGUCAGCAAGUCAAAGACUUGCUCUUCUGUGUAGAAGGGACUGUGUACA [Omei KL FMN B Exc A v4]” the “apparent KD of K4 kissing-loop reporter” value (input ligand: FMN 200 uM) was 0.157 µM, the “apparent KD of K4 kissing-loop reporter” value (input ligand: arginine 13.2 mM) was 0.118 µM and the “apparent KD of K4 kissing-loop reporter” value (input ligand: none) was 0.133 µM. For the same sequence, the “apparent KD of K4 kissing-loop reporter” value [1] was 0.117 µM and the “apparent KD of K4 kissing-loop reporter” value [2] was 0.133 µM.

With “AGUUCUUGCCGAAGGAGCGAGGCAGAGUGAUGUUCUGCAGAUGUCGAAAGACAUCAACUGCCUCAGGUAGGUCGCGGCAUGAACA [#05 K4 Arginine B Exclusion]” the “apparent KD of K4 kissing-loop reporter” value (input ligand: FMN 200 uM) was 0.114 µM, the “apparent KD of K4 kissing-loop reporter” value (input ligand: arginine 13.2 mM) was 0.074 µM and the “apparent KD of K4 kissing-loop reporter” value (input ligand: none) was 0.0996 µM. The “apparent KD of K4 kissing-loop reporter” value [1] was 0.0873 µM and the “apparent KD of K4 kissing-loop reporter” value [2] was 0.108 µM.

“AUAAACUUGCAGUGAUGUUGCAAGUGAGACUAGGAUAUCAGGAAGCUGAGAAGGAGUCAUCUCCUUCAAACAUCACUAUGAAGGA [whbob_SS_FMNA__2th178]” was tested, and the “apparent KD of K4 kissing-loop reporter” value (input ligand: FMN 200 uM) was 0.403 µM, the “apparent KD of K4 kissing-loop reporter” value (input ligand: arginine 13.2 mM) was 0.287 µM and the “apparent KD of K4 kissing-loop reporter” value (input ligand: none) was 0.336 µM. The “apparent KD of K4 kissing-loop reporter” value [1] was 0.232 µM and the “apparent KD of K4 kissing-loop reporter” value [2] was 0.292 µM.

In the case of “AUAAUAUGAGUGAUGUUCAUGUAAGCUGAAGGAGCGGACGAAAGUCCAGGUAGGUCGCAGCGUUCCUUUACCUCAUGAGAAGGAG [KL_SSArg-A1 #analogue]”, the “apparent KD of K4 kissing-loop reporter” value (input ligand: FMN 200 uM) is reported as 0.125 µM, the “apparent KD of K4 kissing-loop reporter” value (input ligand: arginine 13.2 mM) is reported as 0.184 µM and the “apparent KD of K4 kissing-loop reporter” value (input ligand: none) is reported as 0.203 µM. For the same sequence, the “apparent KD of K4 kissing-loop reporter” value [1] was 0.235 µM and the “apparent KD of K4 kissing-loop reporter” value [2] was 0.127 µM.

For “AUACGUUUAAGUGAUACCAGACUGGUGAGUGAUGUUUACCAAUAAAUUAAAUUAUUAGCUGUCCCUUGGCAGCACAGUUUAUUUA [JR_ExcTheophyB_Sub005]”, the “apparent KD of K4 kissing-loop reporter” value (input ligand: FMN 200 uM) was 0.258 µM, the “apparent KD of K4 kissing-loop reporter” value (input ligand: arginine 13.2 mM) was 0.33 µM and the “apparent KD of K4 kissing-loop reporter” value (input ligand: none) was 0.317 µM. The “apparent KD of K4 kissing-loop reporter” value [1] was 0.323 µM and the “apparent KD of K4 kissing-loop reporter” value [2] was 0.229 µM.

With “AUAGGAGUGAUGUUCCUUAGUUUCUCCGAUACCAGUAUGGAAACAUACCCUUGGCAGCGGGAGACCGCUGAUUAGGAAACUAGUC [Theophylline A K4 8]” the “apparent KD of K4 kissing-loop reporter” value (input ligand: FMN 200 uM) was 0.255 µM, the “apparent KD of K4 kissing-loop reporter” value (input ligand: arginine 13.2 mM) was 0.242 µM and the “apparent KD of K4 kissing-loop reporter” value (input ligand: none) was 0.261 µM. For the same sequence, the “apparent KD of K4 kissing-loop reporter” value [1] was 0.251 µM and the “apparent KD of K4 kissing-loop reporter” value [2] was 0.22 µM.
